# Measurements as given in the supplement of paper PMC11865577.
# Assays:
# Test in all cases: pull-down binding Z-score (relative to library population); higher = stronger binding
# Settings in all cases: RNA library: Library-2
# [1] = test system: TO-N3-2 (biotin conjugate)
# Outline: (§1)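 Biotin-conjugated small molecule (100 pmol) on streptavidin beads was incubated with 1 μg of heat-folded Cy5- or Cy3-end-labelled RNA library in phosphate/NaCl/KCl buffer at 25 °C for 60 min. Following three washes, RNA was eluted with hot SDS and hybridised at 55.5 °C for 20 h to a DNA barcode microarray. The binding value is a Z-score computed from the library mean and standard deviation, after subtraction of beads without compound and averaging of barcoded replicate probes with the highest and lowest excluded.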
# [2] = test system: TO-N3 (biotin conjugate)
# Outline: as §1
# [3] = test system: TO-3-N3 (biotin conjugate)
# Outline: as §1
# [4] = test system: TO-3-N3-2 (biotin conjugate)
# Outline: as §1
Sequence,pull-down binding Z-score [1],pull-down binding Z-score [2],pull-down binding Z-score [3],pull-down binding Z-score [4]
GGUUUAACUUCUAUUAAAUGGGCAGAUAACAACUGUUAUCUUGCCACUGCAUUGUUAACACUCCAACAAAUAGAGUUGAAGUUUAAUCC,-0.63,-0.793,-0.726,-0.273
UGCACUUGACCCUCUCUCAGAAACAAAGUGUA,-0.236,0.625,0.756,-0.162
AAGAAGGUCAAAUCAAUGAUAUGAUUUUAUCUCUUCUU,-1.06,-0.543,-0.253,0.176
GUCAGUGAAACACAGGGAACAGAGAAACUGAC [IAV_invivo_PB2_1_Motif_24+IAV_invivo_PB2_1_Motif_24],0.355,-0.399,-0.496,0.282
CUGGCAGUAACCAG [SHAPE_invivo_SARS-CoV-2_Motif_538],-0.733,-0.233,-0.215,-0.422
AAACUUGUGCCCUUUUGGUGAAGUUUUUAACGCCACCAGAUUUGCAUCUGUUU [SHAPE_invivo_SARS-CoV-2_Motif_425],-0.751,-1.3,-1.12,-0.449
GCAGAGACAGAAGAAACAGCAAACUGUGACUCUUCUUCCUGC,0.0897,-0.156,-0.211,-0.128
UGAGUGUGACAUACCCAUUGGUGCAGGUAUAUGCGCUAGUUAUCAGACUCA,0.541,0.865,0.734,0.422
AAAUAAGUAUGAUACUUACCUG [U1snRNP5ss-4],-0.672,-0.506,-0.522,-0.0682
AUAAAGAAAUGUAUCUAAAGUUGCGUAGUGAUGUGCUAUUACCUCUUACGCAAUAUAAUAGAUACUUAGCUCUUUAU,-0.61,-0.507,-0.341,-0.197
UCUGUUUGGAACUUUAAUUUUAGCCAUGGCAGA,0.0796,-0.72,-0.689,-0.0381
CUAAUAACACUAAAGGUUCAUUGCCUAUUAAUGUUAUAG,-0.904,-0.0515,0.171,-0.0592
UCCUAAAGAGGA,-0.731,0.703,1.2,-0.431
ACAGAGACUGAUAGUAAGUUCUCUGU [IAV_invivo_NA_6_Motif_16+IAV_invivo_NA_6_Motif_16],-1.08,-0.696,-0.363,-0.328
AGUUUACGCCCUGACACACGUUAUGUGCUCAUGGAUGGCU,-0.321,-0.719,-0.721,-0.516
UAGGUGUUUUAAUGUCUAAUUUAGGCAUGCCUUCUUACUGUACUGGUUACAGAGAAGGCUAUUUGAACUCUA,-0.982,-0.806,-0.861,-0.358
UAAAGAACUUUAAGUCAGUUCUUUA,-1.19,-1.25,-0.827,-0.501
AAGGCUGAUGAAACUCAAGCCUU,-0.106,-0.413,-0.506,-0.269
GGCUGGUGGCACUACUGAAAUGCUAGCGAAAGCUUUGAGAAAAGUGCCAACAGAC,0.4,0.418,0.234,-0.33
CUAUACUGUUACUAGAUCAGGCAUUAGUGUCUGAUGUUGGUGAUAGUGCGG,-0.582,-0.939,-0.845,-0.622
CAUCAAAACCAAGCAAGAGGUCAUUUAUUGAAGAUCUACUUUUCAACAAAGUGACACUUGCAGAUG [DMSMaPseq_invitro_SARS-CoV-2_Motif_426],-0.851,-0.92,-0.806,-0.0955
AAGUGCUUUUGUUAAUUUAAAACAAUUACCAUUU [SHAPE_invitro_SARS-CoV-2_Motif_354],-0.811,-0.977,-0.729,-0.225
GUACCUCAAGCUGAUGUAGAAUGGAAGUUCUAUGAUGCACAGCCUUGUAGUGAC [SHAPE_invitro_SARS-CoV-2_Motif_348],0.735,-0.178,-0.418,-0.203
GAGGUGAGCAGGAUACUUACCUG [U1snRNP5ss-16],0.602,0.0508,-0.342,-0.182
GGGUAGUGGUGAGCAUUGACC [IAV_invivo_PB2_1_Motif_22+IAV_invivo_PB2_1_Motif_22],0.804,1.28,1.17,0.601
UCUGCUCGCAUAGUGUAUACAGCUUGCUCUCAUGCCGCUGUUGAUGCACUAUGUGAGAAGGCAUUAAAAUAUUUGCCUAUAGA,-0.0527,-0.615,-0.598,-0.447
UGGUUUUGCUAAAUUCCUAAAAACUA [DMSMaPseq_invitro_SARS-CoV-2_Motif_244],-0.866,-0.632,-0.45,-0.0765
CCUUGCACCUAAUAUGAUGGUAACAAACAAUACCUUCACACUCAAAGGCGGUGCACCAACAAAGGUUACUUUUGGUGAUGACACUGUGAUAGAAGUGCAAGG [SHAPE_invivo_SARS-CoV-2_Multi_7_ComplexLevel_1],-0.526,-0.857,-0.657,-0.454
